B1: CC25.4 Fab with the VSRRLP elbow variant (for crystallization) (Fab, V domains shown)
VH: QVQLVQSGAEVKKPGASVKVSCKASGYTFTDYFLHWVRQAPGQGLEWMGWINPDSGGTNYAQRFQGRVTMTRDTSISTAYMEVSRLRSDDTAVYYCARDNERYQMQNYYHYYGMDVWGQGTTVTVVS
VL: not shown
B2: CC25.56 Fab with the […] elbow variant (for crystallization) (Fab, V domains shown)
VH: EVQLVQSGAEVKKPGESLKISCKGSGYTFTRHWIGWVRQMPGKGLEWMGVIYPGDSDTRYSPSFQGQVTVSADKSISTAYLQWSSLKASDTAMYFCARGGIAVASGAFDIWGQGTMVTVFN
VL: QSALTQPPSVSVAPGKTARITCGGNNIGSKSVHWYQQKAGQAPVVVIYYPSDRPSGIPERFSGSNSENTATLTISGVEAGDEADYYCQLWDTNSDHWVFGGGTKLTVL
B3: CC25.43 Fab with the […] elbow mutation and a shortened kappa FG loop (for crystallization) (Fab, V domains shown)
VH: EVQLVESGGGLVQPGGSLKLSCSASGFTLSDSAMHWVRQASGKGLEWVGRISSNVNNDATVYAASLKGRFTISRDESKNMAYLQMNSLKNEDTAVYYCTVVPVLEYYQYGMDVWGQGTTVTIFN
VL: DIQLTQSPSTLSASVGDRVIITCRASQSISTWLAWYQQRPGQAPKLLIYKASILQSGVPPRFSGSGSGTDFTLTISRLQPDDFATYYCQQYDSDSQPLTFGGGTKLEIK

In this experiment the target is SARS-CoV-2 spike receptor-binding domain (RBD), wild type, residues 333-529 (SARS-CoV-2 Wuhan-Hu-1 (wild type), UniProt P0DTC2). Put plainly: crystal structure.
On to B1, for which the binding result is “binds”. For B2 the value was “binds”; for B3, “binds”.

These data come from paper PMC10168401 (bioRxiv, 2023).
